B1: TPR t1 (parent)
chain: GACCAAUCUGCCCUCAGAGCUCGAGAACAUCUUCGGAUGCAGAGGAGGCAGGCUUCGGUGGCGCGAUAGCGCCAACGUCCUCAACCUCCAAUGCAUCCCACCACAUGAUGAUGCCUGAAGAGCCUUGGUUUUUUG

Variants of: B1
Test: polymerase ribozyme fitness, log enrichment relative to wild type (log ratio); higher = more active; in vitro selection for triplet polymerase activity
In short: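 Fitness is a logarithmic measure of how a genotype enriched relative to the wild type, with replicate averages weighted by inverse variance. The logarithm uses base 2, and enrichment came from Illumina sequencing of input and output libraries. Those libraries were PCR-built, transcribed mutants of each subunit of a heterodimeric triplet polymerase ribozyme, passed through one triplicate in vitro selection round that included frozen incubation at −7 °C, gel excision of extended constructs and streptavidin-bead capture. Genotypes were kept only if they had ≥10 input reads and ≥1 read per output.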

| Variant | polymerase ribozyme fitness (log ratio) |
| --- | --- |
| G10A C12U G36U C53A | -0.13 |
| C76G G93A C104U U133A | -0.348 |
| C20G G113A | -2.69 |
| A24G G52A A66U C73U A91G | -4.6 |
| C73U U96A | -1.16 |
| C11G A16C A37C G60U C89G C114G | -6.69 |
| C82G C98A A118U | -5.57 |
| C79A G113C | -3.64 |
| G42U C73A G127A | -2.84 |
| C34U U133A | -4.62 |
| C102U C114G C124G | -2.64 |
| U32C U81G | -3.83 |
| A83C G107U G113A | -3.74 |
| C56U C115G | -2.56 |
| G36C G61U C70G C80U U81A C88U C104A C114G | -6.29 |
| C11A C101G | -3.13 |
| U9A A27U C28A U78C U96A U106A G117A | -4.8 |
| A18C C40U A41G C56G | -3.24 |
| U54A C72U C97U | -1.24 |
| G51A U54G C73G C98U | -5.39 |
| C89U G117C | -4.26 |
| G48U G63U C72U C86A A91C | -5.91 |
| G107A A111U | -5.27 |
| G48A U59C C82A G93C U116G U131A | -4.51 |

| Variant | polymerase ribozyme fitness (log ratio) |
| --- | --- |
| C22G G45A C88G | -4.78 |
| G36U A90G C97G U106C | -1.51 |
| C4G G36A A43C G45U C124G | -4.47 |
| A26U U129G | -3.51 |
| G45C G69U C82A G127A | -3.34 |
| C85U A90U U109G C124A | -6.07 |
| C11G A27G G39U G107U A121G U125G | -6.41 |
| A6C C72G U87A U112A G113U G117C U130G | -5.39 |
| C72U U96A | -1.65 |
| G48A G77A C88U | -0.845 |
| G44C U59C | -1.09 |
| C11U G61A U112C | 1.14 |
| A37G G42C | -1.89 |
| G17U C115G | -0.423 |
| A6U C40U A84G C89U G113U G122C | -5.19 |
| A5U G52C G61C U129A | -2.2 |
| A26U C80U | -4.31 |
| G61U C94U U112A C115G | -0.199 |
| A29U G44A U59A A103C U112C | -5.66 |
| C12G G47C A66U A90C G120C U129A | -6.06 |
| C94U G113U | -2.09 |
| C3U C13U G120A | 1.11 |
| C53G G60U G65U C104U | -7.04 |
| A18G C70U C82A | -6.34 |

| Variant | polymerase ribozyme fitness (log ratio) |
| --- | --- |
| C13G A119U | 0.114 |
| C8A C64U A121G | 1.81 |
| C40A G60A G110C | -6.85 |
| C20U C53G G69C | -2.15 |
| A37U A91U U130A | -2.83 |
| G10U C53U A91U U92A C97U | -6.09 |
| G44A C49U G71A G117C U133G | -5.02 |
| U54A C56U | -0.589 |
| G45A U81G | -3.71 |
| C8U G93C C114U | -1.54 |
| G39A G45C | -2.32 |
| C49G U55C A95C C98U | -3.54 |
| G44A G61C U78C C79G U112G | -3.26 |
| C4U C8G G47C C123A | -0.0311 |
| U78C C94U | -0.58 |
| U7A C40U | 0.348 |
| U38G U116C | -2.06 |
| C12U G65U | -4.93 |
| C40U A74C G120A U131C | 0.155 |
| G42C A46U G60C | -2.77 |
| G60A A66U | -1.29 |
| G52U G93C G120A G135C | -1.15 |
| U9C C31U A37U | -5.02 |
| A26U A41C A46U C101U | -6.28 |

| Variant | polymerase ribozyme fitness (log ratio) |
| --- | --- |
| A6U G48A | -0.413 |
| C15A G52U U55G | -1.52 |
| C12U C73A C104A | -0.305 |
| C13U C40G G42A C79A | -4.76 |
| A27C C104U | -3.21 |
| U112C A119U | 1.24 |
| G71U A121U | 2.07 |
| C13G G23U A29C G69A C97A U112G U126G | -6.55 |
| C3U C13G A90U A121C C124A | -0.103 |
| C12U G44U G110A | -2.1 |
| U33A C72A C76A | -6.92 |
| C72U A105G | -3.04 |
| C8G G110C | -2.74 |
| C34A G44A G48A U59A G61U C72U A121C C123G | -6 |
| C8G C101A | -0.236 |
| G48A C115U C124U | -1.31 |
| C56U G77A C94U C102A | -2.87 |
| C53U C101G | -1.42 |
| C62G C123A | -1.01 |
| G117C G128A | -5.33 |
| C11U C115G | -1.7 |
| A37C A75U C89U C102A | -2.92 |
| C3G C8G G10A A18U A41G G69C A121G | -4.57 |
| C12U C97U | -0.793 |

| Variant | polymerase ribozyme fitness (log ratio) |
| --- | --- |
| C53U U78G C79A | -1.4 |
| C13A C62U C89A | -3.31 |
| G47C U55G G71U U106A U129A G135C | -2.24 |
| C4U C49U C56G C114A G127A | -3.57 |
| U7C C40A C56G | -1.43 |
| C53U C85U | -1.78 |
| A2C C62U | -2.03 |
| G17U A84U U96G G128U U130C | -3.54 |
| C73G C102A | -2.76 |
| C13A U112A | -0.401 |
| G107U A119U A121C | -3.29 |
| A50U G58A U78C A103G U109G | -5.98 |
| C13A C86A | -3.09 |
| A84C C124G | 1.9 |
| A24G C56G G113A G120A G128A | -7.42 |
| C13U U21A A27G G61C C99U | -6.29 |
| C79A A95U | -1.9 |
| A18U A43U U59G G113A U125C | -2.05 |
| C11G U14A A46U | -1.11 |
| A2G C56U | 0.13 |
| G69C U87A C123G | -0.694 |
| C22U C72G | -4.14 |
| U38A G45U G57U | -2.52 |
| C8G U9C C56G | 0.364 |

| Variant | polymerase ribozyme fitness (log ratio) |
| --- | --- |
| A2G U38G G42U G61U C73U C115U | -3.74 |
| C11A A18C | -3.94 |
| A37G C72U C88G C104U G113A | -4.89 |
| C72A U130A | -0.443 |
| A41U C73G A90C C114U G128A | -5.13 |
| C20A C56U | -2.54 |
| C4U U7G C11G C13A C56U U87A U112A | 1.5 |
| U14A G63C | -2.57 |
| C94G U106A | -1.14 |
| G36C C53A C115U U116G | -4.36 |
| C8G G17U A26U G120U | -2.91 |
| U59G C82U G93U U96C C123U | -0.453 |
| C73A A74C | -0.174 |
| A5U U96A | -0.893 |
| G52U C53U C62U C85U U129A | -3.42 |
| C20G G45U G61A | -4.19 |
| G63A C104A U132A G135U | -3.28 |
| C11U C104U U126G | -2.39 |
| C49A C101G C115A G120A | -2.2 |
| A50C G110C | -4.96 |
| C20A G36U | -2.98 |
| U14C A18U G48U G71A | -6.1 |
| G10U C101A U125G | -2.32 |
| C12G G69U G93U C94G U96A C97U U109A | -5.02 |

| Variant | polymerase ribozyme fitness (log ratio) |
| --- | --- |
| G63C C86A U96G C102A | -5.23 |
| G42C G61U | -1.04 |
| A41U G71C | -3.84 |
| U9G G63C C72A | -3.45 |
| U9C A26G C34A G39A C97A C115A A121G | -1.6 |
| U7A A41U C85U | -1.81 |
| C20G G63C | -4.72 |
| A105U U109C | -5.35 |
| C3G U9A G71U G110C | -5.18 |
| G71A C114G | -3.49 |
| U14A A46C U112A A119G G122C | -0.328 |
| A41C C80U C115U | -3.59 |
| A29U C72U C98U A111C | -3.77 |
| C62G U92A | -5.63 |
| G47A C123U | -0.261 |
| C11A C62G | -2.04 |
| G71C G93U C104U A119G | -1.16 |
| C13A U32C A100C | -2.75 |
| U9G U14A C31U G69U G117A G127C | -4.64 |
| C97U C115U | -2.49 |
| U7G C28U G48A G61A | -1.28 |
| C12A G57A | -1.19 |
| A26U C73U U81A | -3.86 |
